# Assay: yeast display, Sf9 membrane polyspecificity reagent, FACS + sequencing; frameworks hold sequencing errors
# Summary of the method: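 Galactose-induced (36–48 hours) yeast carrying a synthetic nanobody display library were exposed to 10% biotinylated, detergent-solubilized Sf9 membrane reagent at 4 °C for 1 hour. FACS followed streptavidin microbead enrichment, using low and high (top ~1%) gates for expression (anti-HA) and reagent binding (streptavidin). Colony PCR, MiSeq 2 × 250 sequencing and CDR-length filtering followed. Labels for polyreactivity reflect the gate of origin.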
row,Sequence,polyreactivity (PSR sort gate)
1,QVQLVESGGGLVQAGGSLRLSCAASGRIFYYYAMGWYRQAPGKEREFVADISARGGSTYYADSVKGRFTISRDNAKNTVYLQMNSLKPEDTAVYYCAATTGLYTRYGYWGQGTQVTVSS,high polyreactivity
2,QVQLVESGGGLVQAGGSLRLSCAASGRIFYYYAMGWYRQAPGKERELLAAITRGGGTYYADSVKGRFTISRDNAKNTVYLQMNSLKPEDTAVYYCAKRGPPESHHPYRYRFDYWGKGTQVTVSS,low polyreactivity
3,QVQLVESGGGLVQAGGSLRLSCAASGRIFYYYAMGWYRQAPGKERELVAAISASGASTYYADSVKGRFTISRDNAKNTVYLQMNSLKPEDTAVYYCAAEEFYYYSADWYDYWGQGTQVTVSS,high polyreactivity
4,QVQLVESGGGLVQAGGSLRLSCAASGRIFYYYAMGWYRQAPGKERELVAAISWSGVNTYYADSVKGRFTISRDNAKNTVYLQMNSLKPEDTAVYYCAAGFAYKYSKGFWSDYWGQGTQVTVSS,high polyreactivity
5,QVQLVESGGGLVQAGGSLRLSCAASGRIFYYYAMGWYRQAPGKERELVAAITRGDSTTYADSVKGRFTISRDNAKNTVYLKMNILKPEDTAVYYCNAGRGTFKRYTALQYWGQGTQVTVSS,low polyreactivity
6,QVQLVESGGGLVQAGGSLRLSCAASGRIFYYYAMGWYRQAPGKERELVAGIDSGDSTNYADSVKGRFTISRDNAKYTVYLQMNSLKPEDTAVYYCAALHFGGYFSYYPYYYWGQGTQVTVSS,low polyreactivity
7,QVQLVESGGGLVQAGGSLRLSCAASGRIFYYYAMGWYRQAPGKERELVATISGIGGSTYYADSVKGRFTISRDNAKNTVYLQMNSLKPEDTAVYFCTADYPTSYPLFKSGFDYWGQGTQVTVSS,low polyreactivity
8,QVQLVESGGGLVQAGGSLRLSCAASGRIFYYYAMGWYRQAPGKERELVAVISRGGRTKYADSVKGRFTISRDNAKNTVYLQMNSLKPEDTAVYYCAAYPSYYGDSGLRYDYWGQGTQVTVSS,high polyreactivity
9,QVQLVESGGGLVQAGGSLRLSCAASGRIFYYYGMGWYRQAPGKERELVAAISNGGRTYYADSVKGRFTISRDNAKNTVYLQMNSLKPEDTAVDYCAALTRGRGGYDYWGQGTQVTVSS,high polyreactivity
10,QVQLVESGGGLVQAGGSLRLSCAASGRIFYYYVMGWYRQAPGKERELVAAISSRGGSTYYADSVKGRFTISRDNAKNTVYLQMNSLKPEDTAVYYCAAEYGSISLRYPYYWRYDYWGQGTQVTVSS,high polyreactivity
11,QVQLVESGGGLVQAGGSLRLSCAASGRIGKYAMGWYRQAPGKERELVATISSTGTTNYADSVKGRFTISRDNAKNTVYLQMNSLKPEDTAVYYCAADKPSYRTLSWGGYWGQGTQVTVSS,high polyreactivity
12,QVQLVESGGGLVQAGGSLRLSCAASGRIGRYAMGWYRQAPGKERELVAVITSGDSTYYADSVKGRFTISRDNAKNTVYLQMNSLTPEDTAVYYCAADSYRRWGNLFTGNEYDSWGQGTQVTVSS,low polyreactivity
13,QVQLVESGGGLVQAGGSLRLSCAASGRIIASYAMGWNRHAPGKETELVAAISLSGGSTYYADSVKGRFTISRDNAKNTVYLQMNSLKPEDCAVYYCAAKNYRRYRDYYWGQGTQVSVSS,high polyreactivity
14,QVQLVESGGGLVQAGGSLRLSCAASGRIIAVNAKGWYRQAPGKERELVAAINGGGSTNYADSVKGRFTISRDNAKNTVYLQMNSLKPEDTAVYYCAADVGWRSQTRGYYWGQGTQVTVSS,high polyreactivity
15,QVQLVESGGGLVQAGGSLRLSCAASGRIIAYYAMGWYRQAPGKERELVAGINSGGGSTYYADSVKGRFTISRDNAKNTVYLQMNSLKPEDTAVYYCAARAGGVDGYDYWGQGTQVTVSS,high polyreactivity
16,QVQLVESGGGLVQAGGSLRLSCAASGRIIDFYTMGWYRQAPGKERELVAGINGSGASTYYADSVKGRFTISRDNAKNTVYLQMNCLKPEDTAVYYCAKDPGYYDDYDYWGQGTQVTVSS,low polyreactivity
17,QVQLVESGGGLVQAGGSLRLSCAASGRIIFHNAMGWYRQAPGKERELVASITSGDGTYYSDSVKGRFTISRDNAKNTVYLQMNSMKPEDTAVYYCAAEPGSIAYYYNRVGLYYWGQGTQVTVSS,low polyreactivity
18,QVQLVESGGGLVQAGGSLRLSCAASGRIIGLYARGWYRQAPGKERELVAAITWRGGRTYYADSVKGRFTISRDNAKNTVYVQMNRLSPEDTAVYYCAADLSNSLDYWGQGSQVTVSS,high polyreactivity
19,QVQLVESGGGLVQAGGSLRLSCAASGRIIGWYAMGRYRQAPGKERELVAAISQDATRTYYADSVKGRFTISRDNAKHTVYLQMNRLKPEDTAVYYCNVVYRYAGWSYDSWGQGTQVTVSS,high polyreactivity
20,QVQLVESGGGLVQAGGSLRLSCAASGRIIGYYAKGWYRQAPGKERELVAAISYSGGATYYADSVKGRFTISRDNEMNTVYLQSKSLKPEVTAVYYCAAQGRWPQRYGYWGQGTQVTVSS,high polyreactivity
21,QVQLVESGGGLVQAGGSLRLSCAASGRIIGYYAMGWYRQAPGKERELVAAISRRGGSTYYADSVKGRFTISRDNAKNTVYLQMNSLKPEDTAVYYCNADRVLTRPRYDYWGQGTQVTVSS,low polyreactivity
22,QVQLVESGGGLVQAGGSLRLSCAASGRIIGYYAMGWYRQAPGKEWELVAAITSSGSRTYYADSVKGRFTISRDNAKNTVYLQMNSLKPDDTAVYYCATTKVYYSAKSSYYYWGQGNQVTVSS,high polyreactivity

row,Sequence,polyreactivity (PSR sort gate)
1,QVQLVESGGGLVQAGGSLRLSCAASGRIIKLYAMGWYRQAPGKEREFVAAITWSGGRTYYADSVKGRFTISRDNAKNTVYLQMNSLKPEDTAVYYCAAYDTYDWYDYWGQGTQVTVSS,high polyreactivity
2,QVQLVESGGGLVQAGGSLRLSCAASGRIIPNNAMGWYRQAPGKERELVAAITRGGTTYADSVKGRFTISRDNAKNTVYLQMNSLKPEDTAVYYCDTAAVKYGYRYYYWGQGTQVTVSS,high polyreactivity
3,QVQLVESGGGLVQAGGSLRLSCAASGRIIPRNAMGWYRQAPGKEMELVAGISRGGSTYYADSVKGRFTISRDNAKNTVYLQMNSLKTEDTAVYYCAAAYQKSPITPKMDYWGQGTQVTVSS,low polyreactivity
4,QVQLVESGGGLVQAGGSLRLSCAASGRIIQGYAIGWYRQAPGKERELVDAIRSGSGSTYYADSVKGRFTISRDNAKNTVYLQMNSLKPEDTAVYYCAADRYYWGQGTQVTVSS,low polyreactivity
5,QVQLVESGGGLVQAGGSLRLSCAASGRIIRINAMGSYRPAPGKERELVAAITRGGTTYADSVKGRFTISRDNAKNTVYLQMTSLIPEDTSVYNCNARTGRSPSGFRYWGQGTQVTVSS,high polyreactivity
6,QVQLVESGGGLVQAGGSLRLSCAASGRIIRINAMGWYRQAPGKERELVATISRSGGRTYYADSVKGRFTISRDNAKNTVYLQMNSLKPEDTAVYYCNADHFYYSSQYGYWGQGTQVTVSS,high polyreactivity
7,QVQLVESGGGLVQAGGSLRLSCAASGRIIRYYAMGWYRQAPGKEREFVATISSGGSTNYADSVKGRFTISRDNAKNTVYLQMNSLKPEDTAVYYCNRVYRRHVWGQGTQVTVSS,high polyreactivity
8,QVQLVESGGGLVQAGGSLRLSCAASGRIISRYTMGWSRQAPGKEREWVAGISRSGDRTYYADSVKGRFTISRDNAKNTVYLQMNSLKPEDTAVYSCNAGYWRFIDSYDYWGQGTQVTVSS,high polyreactivity
9,QVQLVESGGGLVQAGGSLRLSCAASGRIISYYAMGWYRQAPGKERELVAAISRSGGSTYYADSVKGRFTISRDNAKNTVYLQMNSLKPEDTAVYYCAKYFRPVQGDKWGFKYWGQGTQVTVSS,high polyreactivity
10,QVQLVESGGGLVQAGGSLRLSCAASGRIITYYAMGWYRQAPGKERELVAAITASGSRTYYADSVKGRFTISRDNAKNTVYLQMNSLKPEDTAVYYCAALSRLSPLSGSYYWGQGTQVTVSS,high polyreactivity
11,QVQLVESGGGLVQAGGSLRLSCAASGRIIYGNAMGWYRQAPGKERELVAAITSGGSTNYADSVKGRFTISRDNAKNTVYLQMNSLKPEDTAVYYCNAVVYSPYRYEYWGQGTQVTVSS,low polyreactivity
12,QVQLVESGGGLVQAGGSLRLSCAASGRIIYGYAMGWDRQAPGKEREFVARINVSGTSTFYADSVKGRFTISRDNAKNTVYLQMNSLKTVDTAVYDCAARGLPSNYYYYVHGYIMDHWGQGTQVSVSS,low polyreactivity
13,QVQLVESGGGLVQAGGSLRLSCAASGRIIYIYAMGWYRQAPGKERELVAAITASSGSTNYADSVKGRFTISRDNAKNTVYLQLNSLKPEDTAVYYCAAAPSRTLLRQSKYYYWGQGTQVTVSS,low polyreactivity
14,QVQLVESGGGLVQAGGSLRLSCAASGRIIYKYAMGWYRQAPGKERELVAAISYSGGSTYYADSVKGRFTISRDNAKNTVYLQMKSLKPEDTAVYYCNAKPPYGVRSWGDYWGQGTQVNVSS,low polyreactivity
15,QVQLVESGGGLVQAGGSLRLSCAASGRIIYPNTMGWYRQAPGKERELVAAINRLGGSTYYADSVKGRFTISRDYAKNTVYLQMNSLIPEDTAVYYCAAYTTWTRSGYYDFTSYFWGQGTQVTVSS,high polyreactivity
16,QVQLVESGGGLVQAGGSLRLSCAASGRIIYPYALGWYRQAPGKERELVAAISSGSSTNYADSVKGRFTISRDNAKNTVYLQMNSLQPEDTAVYYCNADLVSGVVYDSDYWGQGTQVTVSS,low polyreactivity
17,QVQLVESGGGLVQAGGSLRLSCAASGRIIYRYAMGWYRQAPGKERELVATITWSTTSTYYADSVKGRFTISRDNAKNTVYLEMNSLKPEDTAVYYCASSIIPGFRRDPFGYWGQGTQVTVSS,low polyreactivity
18,QVQLVESGGGLVQAGGSLRLSCAASGRIIYTYAMAWYRQAPGKERELVAAISWSGGSTYYADSVKGRFTISRDNAKNTVYLQMNSMKPEDTAVYYCNAAYYGYENLSKRGYWGQGTQVTVSS,high polyreactivity
19,QVQLVESGGGLVQAGGSLRLSCAASGRIIYVNAMGWYRQAPGKERELVAAISSRGGTTYYADSVKGRFTISRDNAKNTVYLQMNSLKPEDTAVYYCNAGRVRHGNDYWGQGTQVTVSS,high polyreactivity
20,QVQLVESGGGLVQAGGSLRLSCAASGRIKGKNAMGWYRQAPGKERELVAAISSTGSTYYADSVKGRFSISRDNAKNTVYLQMNSLKPEDTAVYYCAATVEWWPGGWFDYWGQGTQVTVSS,high polyreactivity
21,QVQLVESGGGLVQAGGSLRLSCAASGRILAANAMGWYRQAPGKERELVAAISWSGGRTYYADSVKGRFTISRDNAKNTVYLQMNSLKPEDTAVYYCIKLALAGYDYWGQGTQVTVSS,high polyreactivity

# Reference: the nanobody polyreactivity screen of Harvey et al. (2022)
